# T1: nPfh1-K338A (His6-Trx-nPfh1-K338A-FLAG) (Schizosaccharomyces pombe, UniProt Q9UUA2 =MG+22-805, K338A;internal_change)
# T1 sequence: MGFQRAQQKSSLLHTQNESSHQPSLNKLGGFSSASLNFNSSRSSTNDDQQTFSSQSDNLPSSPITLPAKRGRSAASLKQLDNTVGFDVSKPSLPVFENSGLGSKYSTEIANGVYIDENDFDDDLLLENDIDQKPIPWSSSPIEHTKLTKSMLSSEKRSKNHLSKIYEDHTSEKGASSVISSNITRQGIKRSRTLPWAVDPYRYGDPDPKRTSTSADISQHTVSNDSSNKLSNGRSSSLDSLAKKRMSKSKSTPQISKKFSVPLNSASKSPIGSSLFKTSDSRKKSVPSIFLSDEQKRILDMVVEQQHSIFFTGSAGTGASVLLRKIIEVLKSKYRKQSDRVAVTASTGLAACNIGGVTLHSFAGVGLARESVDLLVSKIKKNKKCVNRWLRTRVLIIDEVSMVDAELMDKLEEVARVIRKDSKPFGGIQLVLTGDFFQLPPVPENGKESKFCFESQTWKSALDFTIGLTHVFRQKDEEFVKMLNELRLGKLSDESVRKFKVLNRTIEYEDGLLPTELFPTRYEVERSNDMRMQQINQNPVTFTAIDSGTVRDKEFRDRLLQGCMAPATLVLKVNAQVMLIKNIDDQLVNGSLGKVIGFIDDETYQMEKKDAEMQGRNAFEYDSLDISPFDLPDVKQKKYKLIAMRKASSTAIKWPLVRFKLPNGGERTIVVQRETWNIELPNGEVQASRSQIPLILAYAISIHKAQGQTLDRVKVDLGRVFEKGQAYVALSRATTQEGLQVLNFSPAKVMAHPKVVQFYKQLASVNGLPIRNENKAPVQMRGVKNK
# Biological target: T1, nPfh1-K338A (His6-Trx-nPfh1-K338A-FLAG)
# Test: EMSA
binder,measurement,value
AAAAAAAAAA (ssDNA) [Poly(A)10],binding result,no binding
